The results in this text go back to article PMC6444592, “Citrullination of HP1γ chromodomain affects association with chromatin” (Epigenetics & Chromatin, 2019).

Assay [1] concerns the target T1, GST-HP1γR38/9A (full-length mouse HP1γ with alanine substitutions at amino acids 38 and 39) (mouse, UniProt P23198 1-183, R38/9A | R38/9A).
T1 construct: heterochromatin protein 1 gamma (HP1γ), mouse, full length, R38A and R39A (designed to mimic citrullination); also called double alanine mutant; source: E. coli, expressed as GST fusion protein (pGEX-2T), purified
As to the kind of experiment: pull-down; H3K9me3 or unmethylated H3(1–16) peptides linked to Dynabeads MyOne streptavidin T1; eluted GST-HP1 in HBS-EP (300 mM NaCl, 10 mM HEPES KOH pH 7.4, 5 mM EDTA, 0.2% NP-40); SDS-PAGE, Coomassie-blue staining. The conditions noted are these: both partners purified.

Assay [2] addresses T2, GST-HP1γR38/9K (full-length mouse HP1γ with R38 and R39 mutated to lysine) (mouse, UniProt P23198 1-183, R38/9K | R38/9K).
T2 construct: heterochromatin protein 1 gamma (HP1γ), mouse, full length, R38K and R39K (retains the positive charge); source: E. coli, expressed as GST fusion protein (pGEX-2T), purified
The assay is described as above. The following applies: both partners purified.

T1 sequence (P23198 other isoform, or with tags, fused parts or gaps R38/9A | R38/9A | R38/9A | R38/9A): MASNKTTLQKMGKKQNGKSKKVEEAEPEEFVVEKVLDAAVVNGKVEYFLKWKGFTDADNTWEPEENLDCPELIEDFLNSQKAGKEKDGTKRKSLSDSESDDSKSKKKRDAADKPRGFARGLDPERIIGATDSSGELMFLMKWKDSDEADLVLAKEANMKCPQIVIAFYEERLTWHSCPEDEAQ
T2 sequence (P23198 other isoform, or with tags, fused parts or gaps R38/9K | R38/9K | R38/9K | R38/9K): as the sequence (P23198 other isoform, or with tags, fused parts or gaps R38/9A | R38/9A | R38/9A | R38/9A) above, with A38K, A39K counted along it

B1: H3K9me3(1–16) peptide (peptide)
peptide: ARTKQTARKSTGGKAP
modifications: trimethyl-lysine at K9 (K(me3)); biotin at the C-terminus
notes: histone H3, residues 1-16; also called methylated H3K9me3(1–16) peptides; H3K9me3 peptides
B1: the binding result in assay [1] and in assay [2] was “binds” each time.
